Here are results for one molecule from paper PMC1904291.

Common to all, as to experiment: EMSA
One data set concerns the target T1, I-CreI Δ1 (UniProt P05725 1-137).
T1 sequence: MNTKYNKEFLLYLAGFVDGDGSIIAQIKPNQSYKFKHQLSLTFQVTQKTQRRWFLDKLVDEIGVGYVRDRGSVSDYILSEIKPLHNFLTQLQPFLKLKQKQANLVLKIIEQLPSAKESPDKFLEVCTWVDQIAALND

Another data set has as its target T2, I-CreI S138A (UniProt P05725 1-163, S138A).
T2 sequence: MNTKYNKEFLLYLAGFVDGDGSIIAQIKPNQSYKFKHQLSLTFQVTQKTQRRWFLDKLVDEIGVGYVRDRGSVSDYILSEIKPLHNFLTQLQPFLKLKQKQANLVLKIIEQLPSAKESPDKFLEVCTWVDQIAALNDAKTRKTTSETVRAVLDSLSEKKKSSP

For a further data set, the target named is T3, I-CreI GG (UniProt P05725 1-163, K142G;T143G).
T3 sequence: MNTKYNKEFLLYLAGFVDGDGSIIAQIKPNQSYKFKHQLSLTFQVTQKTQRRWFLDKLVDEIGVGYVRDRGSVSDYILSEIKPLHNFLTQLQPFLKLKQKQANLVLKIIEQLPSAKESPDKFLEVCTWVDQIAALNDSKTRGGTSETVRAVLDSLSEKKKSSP

A further data set addresses T4, I-CreI (UniProt P05725 1-163).
T4 sequence: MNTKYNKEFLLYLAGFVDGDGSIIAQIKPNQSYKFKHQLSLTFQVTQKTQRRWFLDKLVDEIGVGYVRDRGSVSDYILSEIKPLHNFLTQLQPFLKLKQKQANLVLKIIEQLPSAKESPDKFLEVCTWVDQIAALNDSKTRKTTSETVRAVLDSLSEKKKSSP

The target in another data set is T5, I-CreI K139M (UniProt P05725 1-163, K139M).
T5 sequence: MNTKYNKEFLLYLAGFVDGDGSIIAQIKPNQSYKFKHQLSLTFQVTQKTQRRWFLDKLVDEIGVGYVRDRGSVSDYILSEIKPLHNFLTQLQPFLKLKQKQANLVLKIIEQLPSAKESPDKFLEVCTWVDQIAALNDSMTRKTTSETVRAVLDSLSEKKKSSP

A further data set has as its target T6, I-CreI AM (UniProt P05725 1-163, S138A;K139M).
T6 sequence: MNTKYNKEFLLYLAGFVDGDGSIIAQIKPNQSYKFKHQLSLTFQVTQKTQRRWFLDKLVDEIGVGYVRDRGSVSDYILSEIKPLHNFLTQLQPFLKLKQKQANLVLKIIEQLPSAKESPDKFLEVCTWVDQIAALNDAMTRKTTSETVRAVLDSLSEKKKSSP

B1: 6-FAM I-CreI target duplex (dsDNA)
DNA 1: GCAAAACGTCGTGAGACAGTTTGC
DNA 2: GCAAACTGTCTCACGACGTTTTGC
As to B1, in the data set with I-CreI Δ1, the binding result is “no binding”. For the same molecule, the equilibrium dissociation constant (Kd) in the data set with I-CreI S138A worked out at 250 nM; in the data set with I-CreI GG, 50 nM; with I-CreI, 0.2 nM; with I-CreI K139M it was 110 nM; with I-CreI AM it was 1240 nM.
